In publication PMC4239116, “Crystal Structure of Cytomegalovirus IE1 Protein Reveals Targeting of TRIM Family Member PML via Coiled-Coil Interactions” (PLoS Pathogens, 2014):

B1: hIE1_(CORE)(14-382), recombinant (domain or fragment)
chain: PDEGPSSKVPRPETPVTKATTFLQTMLRKEVNSQLSLGDPLFPELAEESLKTFEQVTEDCNENPEKDVLAELVKQIKVRVDMVRHRIKEHMLKKYTQTEEKFTGAFNMMGGCLQNALDILDKVHEPFEEMKCIGLTMQSMYENYIVPEDKREMWMACIKELHDVSKGAANKLGGALQAKARAKKDELRRKMMYMCYRNIEFFTKNSAFPKTTNGCSQAMAALQNLPQCSPDEIMAYAQKIFKILDEERDKVLTHIDHIFMDILTTCVETMCNEYKVTSDACMMTMYGGISLLSEFCRVLCCYVLEETSVMLAKRPLITKPEVISVMKRRIEEICMKVFAQYILGADPLRVCSPSVDDLRAIAEESDEEE
notes: also called hIE1(14-382); source: E. coli BL21(DE3), purified (glutathione sepharose, PreScission cleavage, SEC)

Tests used:
[1] = biological target: rhIE1(36-395), core domain of rhesus cytomegalovirus IE1, lysine-methylated (rhesus cytomegalovirus (rhesus macaque CMV)); test: crystal structure; rhIE1(36-395), lysine-methylated; hanging drop, 0.4 M magnesium formate, 15% (w/v) PEG 3350; monoclinic P2_1 crystals and, after controlled dehydration, tetragonal P4_3 crystals (2.3 Å)
[2] = biological target: the molecule itself; test: SEC; Superdex 200 prepgrade; 25 mM Tris, 150 mM NaCl, 10 mM DTT, pH 7.5; calibrated with the Bio-Rad gel filtration standard

Molecule	stoichiometry N [1]	binding result [2]
rhIE1(36-395), core domain of rhesus cytomegalovirus IE1, lysine-methylated (domain or fragment)	2	
B1		binds
